Laboratory results taken from patent publication US20030135878.
Changes are numbered by the printed parent chain.

Tests used:
[1] = biological target: T1, Wheat alpha-amylase pI 5.23 inhibitor (spot #4), P01084
T1 chain: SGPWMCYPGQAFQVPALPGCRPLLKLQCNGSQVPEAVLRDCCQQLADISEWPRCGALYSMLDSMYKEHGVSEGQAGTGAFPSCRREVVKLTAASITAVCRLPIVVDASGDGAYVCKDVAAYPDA

[2] = biological target: T2, Wheat alpha-amylase pI 6.66 inhibitor (spot #1), P01085
T2 chain: T1 chain with G19A, K25R, D47H, P52C, V70A, S71Q, S82R

[3] = biological target: T3, Wheat alpha-amylase/trypsin inhibitor (spot #3), P16851
T3 chain: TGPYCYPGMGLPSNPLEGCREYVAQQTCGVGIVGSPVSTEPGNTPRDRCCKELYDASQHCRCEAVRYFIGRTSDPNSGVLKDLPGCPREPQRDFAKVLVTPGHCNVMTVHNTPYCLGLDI

[4] = biological target: wheat gliadin homolog of oat avenin (spot #2)

B1: wheat thioredoxin h (WTRXh), 13.5-kDa protein encoded by the 384-bp wtrxh fragment (protein)
chain: MAASAATATATAAAVGAGEVISVHSLEQWTMQIEEANAAKKLVVIDFTASWCGPCRIMAPIFADLAKKFPAAVFLKVDVDELKPIAEQFSVEAMPTFLFMKEGDVKDRVVGAIKEELTTKVGLHAAQ
redox state by mBBr/2D IEF/SDS-PAGE, homozygote overexpressing thioredoxin h vs. null segregant [1]: five proteins were observed to be more highly reduced in extracts of the homozygote (spots 1-5, FIG. 29)
redox state by mBBr/2D IEF/SDS-PAGE, homozygote overexpressing thioredoxin h vs. null segregant [2]: five proteins were observed to be more highly reduced in extracts of the homozygote (spots 1-5, FIG. 29)
redox state by mBBr/2D IEF/SDS-PAGE, homozygote overexpressing thioredoxin h vs. null segregant [3]: five proteins were observed to be more highly reduced in extracts of the homozygote (spots 1-5, FIG. 29)
redox state by mBBr/2D IEF/SDS-PAGE, homozygote overexpressing thioredoxin h vs. null segregant [4]: five proteins were observed to be more highly reduced in extracts of the homozygote (spots 1-5, FIG. 29)
